Legend:
Test in all cases: yeast two-hybrid
[1] = target: T1, intersectin 1 (aa 387-611) (UniProt Q15811 387-611)
T1 construct: range 387-611
T1 sequence (looked up): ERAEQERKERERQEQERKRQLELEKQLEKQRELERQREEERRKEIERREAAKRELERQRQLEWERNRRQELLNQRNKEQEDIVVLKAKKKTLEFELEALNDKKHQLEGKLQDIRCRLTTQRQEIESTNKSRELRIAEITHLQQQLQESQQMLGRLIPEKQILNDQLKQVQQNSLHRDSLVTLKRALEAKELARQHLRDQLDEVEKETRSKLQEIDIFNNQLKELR

[2] = target: T2, GTPase-activating protein 1 (aa 1419-1657) (UniProt P46940 1419-1657)
T2 construct: range 1419-1657; also called IQGAP1; IQGAP
T2 sequence (looked up): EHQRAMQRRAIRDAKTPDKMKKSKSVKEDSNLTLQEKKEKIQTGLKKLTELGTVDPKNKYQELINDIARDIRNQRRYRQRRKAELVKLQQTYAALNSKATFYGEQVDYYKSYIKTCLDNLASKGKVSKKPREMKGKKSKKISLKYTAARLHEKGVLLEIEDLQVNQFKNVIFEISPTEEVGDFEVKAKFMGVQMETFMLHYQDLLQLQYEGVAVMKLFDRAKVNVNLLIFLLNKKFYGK

[3] = target: T3, intersectin 1 (aa 210-633) (UniProt Q15811 210-633)
T3 construct: range 210-633
T3 sequence (looked up): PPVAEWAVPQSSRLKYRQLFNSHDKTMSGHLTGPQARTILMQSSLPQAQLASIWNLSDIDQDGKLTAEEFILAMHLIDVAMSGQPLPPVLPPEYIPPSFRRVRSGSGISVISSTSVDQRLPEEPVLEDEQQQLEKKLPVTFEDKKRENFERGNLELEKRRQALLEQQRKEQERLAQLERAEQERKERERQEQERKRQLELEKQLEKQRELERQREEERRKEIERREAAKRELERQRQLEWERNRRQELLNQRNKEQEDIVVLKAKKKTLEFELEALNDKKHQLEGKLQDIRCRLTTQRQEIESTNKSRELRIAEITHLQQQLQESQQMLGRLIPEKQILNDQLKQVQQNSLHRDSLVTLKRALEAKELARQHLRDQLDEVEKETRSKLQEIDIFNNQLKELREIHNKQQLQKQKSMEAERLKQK

[4] = target: T4, catenin, GenBank U96136 (aa 684-1148) (UniProt Q9UQB3 684-1148)
T4 construct: range 684-1148
T4 sequence (looked up): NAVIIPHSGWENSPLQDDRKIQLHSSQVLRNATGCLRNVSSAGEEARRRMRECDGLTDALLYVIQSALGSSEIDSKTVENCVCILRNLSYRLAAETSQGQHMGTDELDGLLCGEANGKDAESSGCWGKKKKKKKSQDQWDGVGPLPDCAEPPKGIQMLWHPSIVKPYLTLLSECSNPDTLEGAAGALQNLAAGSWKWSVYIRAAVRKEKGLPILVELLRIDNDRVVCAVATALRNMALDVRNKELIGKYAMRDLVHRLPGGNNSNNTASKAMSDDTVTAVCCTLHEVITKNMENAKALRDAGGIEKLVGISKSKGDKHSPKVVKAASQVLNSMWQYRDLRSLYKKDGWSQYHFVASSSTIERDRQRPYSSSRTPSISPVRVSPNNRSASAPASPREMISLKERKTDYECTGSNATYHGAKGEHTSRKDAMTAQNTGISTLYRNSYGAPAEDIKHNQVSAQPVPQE

[5] = target: T5, mitotic spindle coiled-coil related protein (aa 723-1012) (UniProt Q96R06 723-1012)
T5 construct: range 723-1012
T5 sequence (looked up): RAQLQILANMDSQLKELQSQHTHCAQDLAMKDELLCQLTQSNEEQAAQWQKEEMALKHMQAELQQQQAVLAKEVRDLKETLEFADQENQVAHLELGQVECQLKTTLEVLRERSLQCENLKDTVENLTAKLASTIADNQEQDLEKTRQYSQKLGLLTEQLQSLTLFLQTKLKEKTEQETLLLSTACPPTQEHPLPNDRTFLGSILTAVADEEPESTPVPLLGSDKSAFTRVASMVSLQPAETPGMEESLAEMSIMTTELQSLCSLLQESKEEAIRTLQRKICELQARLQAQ

[6] = target: T6, hook2 protein (aa 290-555) (UniProt Q96ED9 290-555)
T6 construct: range 290-555
T6 sequence (looked up): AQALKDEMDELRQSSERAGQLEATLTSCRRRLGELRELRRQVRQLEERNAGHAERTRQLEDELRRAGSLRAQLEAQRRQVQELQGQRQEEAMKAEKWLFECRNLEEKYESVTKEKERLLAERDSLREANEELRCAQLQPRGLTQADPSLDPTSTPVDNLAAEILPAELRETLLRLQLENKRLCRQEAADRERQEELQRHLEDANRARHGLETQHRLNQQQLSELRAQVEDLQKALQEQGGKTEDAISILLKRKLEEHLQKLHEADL

[7] = target: T7, hook2 protein (aa 201-559) (UniProt Q96ED9 201-559)
T7 construct: range 201-559
T7 sequence (looked up): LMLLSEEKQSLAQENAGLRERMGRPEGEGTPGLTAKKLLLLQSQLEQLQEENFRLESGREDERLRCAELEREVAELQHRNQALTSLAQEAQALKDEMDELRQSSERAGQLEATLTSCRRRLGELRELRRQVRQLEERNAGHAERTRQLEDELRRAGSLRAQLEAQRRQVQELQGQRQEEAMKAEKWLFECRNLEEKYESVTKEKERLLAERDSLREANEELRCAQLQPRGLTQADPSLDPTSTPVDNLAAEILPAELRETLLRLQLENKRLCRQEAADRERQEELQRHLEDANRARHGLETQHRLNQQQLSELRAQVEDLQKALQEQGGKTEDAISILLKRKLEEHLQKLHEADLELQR

[8] = target: T8, pallid (aa 21-172) (UniProt Q9UL45 21-172)
T8 construct: range 21-172
T8 sequence (looked up): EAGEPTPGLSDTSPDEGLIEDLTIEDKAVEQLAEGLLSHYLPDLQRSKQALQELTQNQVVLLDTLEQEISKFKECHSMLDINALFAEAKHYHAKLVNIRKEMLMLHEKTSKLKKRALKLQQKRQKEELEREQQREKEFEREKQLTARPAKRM

Measured: binding result

B1: Tsg101 (aa 240-391) (other, human, UniProt Q99816 240-390, looked up)
chain: WRMKEEMDRAQAELNALKRTEEDLKKGHQKLEEMVTRLDQEVAEVDKNIELLKKKDEELSSALEKMENQSENNDIDEVIIPTAPLYKQILNLYAEENAIEDTIFYLGEALRRGVIDLDVFLKHVRLLSRKQFQLRALMQKARKTAGLSDLY
notes: range 240-391; also called C-terminal fragment of Tsg101; amino acid residues 240-390
binds: all assays above

From patent US7202329 (MYRIAD GENETICS, dated 2007)
